Measurements published in patent US20060134709A1.

Tests used:
[1] = target: soluble monomeric FcγRIIIA-linker-AVITAG (human) (UniProt P08637); assay: ELISA
soluble FcγRIIB (human) = soluble FcγRIIB (human) (UniProt P31994); assay: ELISA

Substance	fold increase vs wt [1] [x]	fold increase vs wt (soluble FcγRIIB (human)) [x]	other results
ch4-4-20 A378V, N390I, V422I (antibody)	0.5	–	–
ch4-4-20 D280E, S354F, A431D, L441I (antibody)	3	–	–
ch4-4-20 D312E, K327N, I378S (antibody)	0.5	–	–
ch4-4-20 D399E, M428L (antibody)	–	–	fold decrease vs wt [1]: 0.5 x; fold decrease vs wt (soluble FcγRIIB (human)): 0.5 x
ch4-4-20 E216D, E345K, S375I (antibody)	0.5	4	–
ch4-4-20 E233D, K334E (antibody)	1.5	–	–
ch4-4-20 E258D, N384K (antibody)	1.25	4	–
ch4-4-20 F243L, V305I, A378D, F404S, P396L (antibody)	1.6	5.4	–
ch4-4-20 F275Y (antibody)	3	–	–
ch4-4-20 H224L (antibody)	0.5	–	–
ch4-4-20 H268D, E318D (antibody)	1.5	–	–
ch4-4-20 H268D, P396L (antibody)	3.8	13.7	–
ch4-4-20 I377N (antibody)	–	–	fold decrease vs wt [1]: 0.5 x
ch4-4-20 K210M, P396L (antibody)	1.9	4.6	–
ch4-4-20 K210N, K222I, K320M, P396L (antibody)	2.7	8.7	–
ch4-4-20 K218R, G281D, G385R (antibody)	3.5	–	–
ch4-4-20 K246I, Q362H, K370E (antibody)	–	–	fold decrease vs wt (soluble FcγRIIB (human)): 0.5 x
ch4-4-20 K246N, Q419R, P396L (antibody)	1.1	4.8	–
ch4-4-20 K246R, S298N, I377F (antibody)	1	–	–
ch4-4-20 K246T, Y319F (antibody)	1	–	–
ch4-4-20 K290E, V369A, T393A, P396L (antibody)	1.3	6.7	–

Substance	fold increase vs wt [1] [x]	fold increase vs wt (soluble FcγRIIB (human)) [x]	other results
ch4-4-20 K317N, F423-deleted (antibody)	2.5	7	–
ch4-4-20 K326E, G385E (antibody)	0.5	–	–
ch4-4-20 K326I, S408N, P396L (antibody)	4	9.3	–
ch4-4-20 K326Q, K334E, T359N, T366S (antibody)	1.5	–	–
ch4-4-20 K334E (antibody)	2.5	–	–
ch4-4-20 K334E, E380D (antibody)	1.5	4.5	–
ch4-4-20 K334N (antibody)	0.5	–	–
ch4-4-20 K370E, P396L (antibody)	2	6.6	–
ch4-4-20 K414N (antibody)	–	–	fold decrease vs wt [1]: 0.25 x
ch4-4-20 N315I (antibody)	–	0.75	–
ch4-4-20 P247L, A431V, S442F (antibody)	–	–	fold vs wt [1]: 1 x
ch4-4-20 P247L, I377F (antibody)	1	–	–
ch4-4-20 P247L, L398Q (antibody)	1.25	–	–
ch4-4-20 P291S, K288E, H268L, A141V (antibody)	–	–	fold decrease vs wt [1]: 0.5 x
ch4-4-20 R301C, M252L, S192T (antibody)	–	–	fold decrease vs wt [1]: 0.5 x
ch4-4-20 S219Y (antibody)	1	–	–
ch4-4-20 T256S, V305I, K334E, N390S (antibody)	1.5	–	–
ch4-4-20 T335N, P387S, H435Q (antibody)	–	–	fold vs wt [1]: 1.25 x
ch4-4-20 T394M, V397M (antibody)	0.5	–	–
ch4-4-20 V284A, F372L (antibody)	–	–	fold vs wt [1]: 1 x

Second part, led by results:

fold increase vs wt [1] [x]	fold increase vs wt (soluble FcγRIIB (human)) [x]	Substance	other results
1.9	7.2	ch4-4-20 "term is M, P396L" (antibody)	–
1.5	6	ch4-4-20 A231V, Q386H, V412M (antibody)	–
2.5	6	ch4-4-20 D221Y, M252I, A330G, A339T, T359N, V422I, H433L (antibody)	–
–	0.5	ch4-4-20 D399E, R292L, V185M (antibody)	–
0.5	–	ch4-4-20 D401V (antibody)	–
1.9	4.9	ch4-4-20 E258D, P396L (antibody)	–
2	2.5	ch4-4-20 F241L, E258G (antibody)	–
1	–	ch4-4-20 F243L, R255L, E318K (antibody)	–
0.5	–	ch4-4-20 F275I, K334N, V348M (antibody)	–
2.2	3.7	ch4-4-20 F275L, Q362H, N384K, P396L (antibody)	–
1	0.75	ch4-4-20 G385E, P247H (antibody)	–
0.5	–	ch4-4-20 H310Y, T289A, G337E (antibody)	–
1.5	0.5	ch4-4-20 I377F (antibody)	–
1	–	ch4-4-20 K222N (antibody)	–
1	7	ch4-4-20 K222N, T335N, K370E, A378V, T394M (antibody)	–
1	2.5	ch4-4-20 K246T, P396H (antibody)	–
1	–	ch4-4-20 K288N, K326N (antibody)	–
0.25	6	ch4-4-20 K290T, G371D (antibody)	–
2.8	6.1	ch4-4-20 K290T, N390I, P396L (antibody)	–

fold increase vs wt [1] [x]	fold increase vs wt (soluble FcγRIIB (human)) [x]	Substance	other results
1	–	ch4-4-20 K320E, K326E (antibody)	–
2.9	5.9	ch4-4-20 K326I, P396L (antibody)	–
1	–	ch4-4-20 K334E, T359N, T366S, Q386R (antibody)	–
1	–	ch4-4-20 K334I (antibody)	–
3.1	–	ch4-4-20 K334N, P396L (antibody)	–
2	–	ch4-4-20 L235P, V382M, S304G, V305I, V323I (antibody)	–
1.5	–	ch4-4-20 L398V (antibody)	–
1.5	–	ch4-4-20 P247L, W313R, E388G (antibody)	–
1	–	ch4-4-20 P396H (antibody)	–
1	–	ch4-4-20 P396L (antibody)	–
0.5	–	ch4-4-20 Q347H, A339V (antibody)	–
2	–	ch4-4-20 R255Q, K326E (antibody)	–
2	–	ch4-4-20 S298N, W381R (antibody)	–
0.5	–	ch4-4-20 S383N, N384K, T256N, V262L, K218E, R214I, K205E, F149Y, K133M (antibody)	–
0.5	–	ch4-4-20 T335N, K370E, A378V, T394M, S424L (antibody)	–
1	–	ch4-4-20 V279L, P395S (antibody)	–
1	–	ch4-4-20 V282M (antibody)	–
0.25	–	ch4-4-20 V397M, T411A, S415N (antibody)	–
